The target of assay [1] is CRL5^Ozz, reconstituted five-component complex (Ozz–EloBC + Cul5–Rbx1) (human) (UniProt Q9BR09). Kind of assay: co-sedimentation; 15–45% glycerol gradient ultracentrifugation with micro-fractionation; 20 mM Tris–HCl pH 7.6, 150 mM NaCl; 55,000 r.p.m., 8 h (also 12 h), 4 °C; fractions on SDS gels stained with SYPRO Ruby, densitometry.
Assay [2] has the same target. Kind of assay: SEC; purified Ozz–EloBC and Cul5–Rbx1 mixed 1:1; Superose 6 10/300GL, 50 mM Tris pH 7.6, 150 mM NaCl, 0.3 ml/min; fractions on SDS gels stained with SYPRO Ruby. (SEC sorts molecules by how far they enter the pores of the column.)
Assay [3] has the same target. Kind of assay: AUC; sedimentation velocity, 50,000 rpm, 20 °C, interference optics; 10 mM sodium phosphate, 1.8 mM potassium phosphate pH 7.2, 137 mM NaCl, 0.27 mM KCl; c(s) and two-dimensional c(s,f/f0) analysis of the same data; co-purified subcomplexes alone (Ozz–EloBC 0.35 or 1.00 mg/ml, Cul5–Rbx1 0.21 mg/ml) and their 1:1 mixture (0.75 mg/ml).
The target of assay [4] is Ozz–EloBC subcomplex (human) (UniProt Q9BR09). The assay is described as above.
Assay [5] shares this target. Nature of the assay: AUC; sedimentation velocity, isotherm of signal-weighted-average s (3 to 7 S) of Ozz–EloBC at 1.8 to 13.3 μM; reversible monomer–dimer self-association model (dimer to monomers of the 1:1:1 complex), SEDPHAT; same buffer, 20 °C.

Sequence of Cul5–Rbx1 subcomplex (Q93034 whole entry): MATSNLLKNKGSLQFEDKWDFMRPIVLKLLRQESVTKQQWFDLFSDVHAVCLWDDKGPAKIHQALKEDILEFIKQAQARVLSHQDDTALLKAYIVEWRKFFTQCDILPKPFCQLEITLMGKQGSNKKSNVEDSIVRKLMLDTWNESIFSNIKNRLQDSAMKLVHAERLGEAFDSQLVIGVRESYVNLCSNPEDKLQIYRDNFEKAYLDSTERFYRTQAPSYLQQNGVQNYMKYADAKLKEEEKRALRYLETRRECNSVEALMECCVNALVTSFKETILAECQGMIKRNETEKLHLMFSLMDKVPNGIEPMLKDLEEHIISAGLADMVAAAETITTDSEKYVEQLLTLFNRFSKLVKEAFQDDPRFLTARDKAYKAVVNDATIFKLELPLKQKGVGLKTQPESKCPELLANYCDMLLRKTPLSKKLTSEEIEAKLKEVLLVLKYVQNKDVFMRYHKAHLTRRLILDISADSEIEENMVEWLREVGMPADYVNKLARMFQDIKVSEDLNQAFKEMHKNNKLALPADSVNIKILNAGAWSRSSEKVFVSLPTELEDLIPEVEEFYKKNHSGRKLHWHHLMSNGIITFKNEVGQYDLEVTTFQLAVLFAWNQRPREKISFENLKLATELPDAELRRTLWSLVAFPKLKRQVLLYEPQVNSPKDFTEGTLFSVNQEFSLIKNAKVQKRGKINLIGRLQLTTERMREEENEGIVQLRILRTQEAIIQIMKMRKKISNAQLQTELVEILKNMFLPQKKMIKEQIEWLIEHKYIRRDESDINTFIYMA
Sequence of Cul5–Rbx1 subcomplex (P62877 whole entry): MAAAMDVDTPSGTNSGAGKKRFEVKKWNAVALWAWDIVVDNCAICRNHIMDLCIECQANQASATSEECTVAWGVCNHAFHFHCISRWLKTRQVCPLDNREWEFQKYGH

On to “CRL5^Ozz, reconstituted five-component complex (Ozz–EloBC + Cul5–Rbx1) (from UniProt Q9BR09 1-285; Q15370 1-118; Q15369 1-112; Q93034 1-780; P62877 1-108)”, for which the stoichiometry N (in general, the number of molecules, sites or subunits per partner or assembly) in assay [1] amounted to 2. In assay [2], the stoichiometry N came out at 2. Moreover, in assay [3], the percent of total protein in the dimer peak, c(s) was determined as 5%; the percent of total protein in the dimer peak, c(s,f/f0) amounted to 8%; the stoichiometry N is 2.
For the substance “Cul5–Rbx1 subcomplex (from UniProt Q93034 1-780; P62877 1-108)”, in assay [4], the percent of total protein in the peak of the 1:1:1:1:1 complex, c(s) came out at 55%; the percent of total protein in the peak of the 1:1:1:1:1 complex, c(s,f/f0) came out at 48%; the stoichiometry N was 1.
Turning to “Ozz–EloBC subcomplex (from UniProt Q9BR09 1-285; Q15370 1-118; Q15369 1-112)”, in assay [5], the Kd (usually the concentration at which binding is half-saturated) was determined as 700 nM. Also, in assay [4], the percent of total protein in the dimer peak, c(s) stood at 53%; the percent of total protein in the dimer peak, c(s,f/f0) is 52%; the stoichiometry N was 2.
